Experimental data as given in patent publication US20160264649A1.

Tests used:
Assay in all cases: cell-based or functional assay
[1] = biological target: HIV-1 Env of isolate MGRM-D-024 (subtype D) (HIV-1)
[2] = biological target: HIV-1 Env of isolate MGRM-D-020 (subtype D) (HIV-1)
[3] = biological target: HIV-1 Env of isolate MGRM-F1-006 (subtype F) (HIV-1)
[4] = biological target: HIV-1 Env of isolate 92UG005 (subtype D) (HIV-1)
[5] = biological target: HIV-1 Env of isolate MGRM-F1-016 (subtype F) (HIV-1)
[6] = biological target: HIV-1 Env of isolate MGRM-D-011 (subtype D) (HIV-1)
[7] = biological target: HIV-1 Env of isolate MGRM-F1-023 (subtype F) (HIV-1)
[8] = biological target: envelope of aMLV pseudovirus (negative control)
[9] = biological target: HIV-1 Env of pseudovirus isolate MGRM-G-019 (subtype G) (HIV-1)
[10] = biological target: HIV-1 Env of pseudovirus isolate MGRM-G-001 (subtype G) (HIV-1)
[11] = biological target: HIV-1 Env of pseudovirus isolate MGRM-G-028 (subtype G) (HIV-1)
[12] = biological target: HIV-1 Env of isolate MGRM-F1-020 (subtype F) (HIV-1)
[13] = biological target: HIV-1 Env of isolate 98CN009 (subtype CRF07_BC) (HIV-1)
[14] = biological target: HIV-1 Env of pseudovirus isolate MGRM-G-015 (subtype G) (HIV-1)
[15] = biological target: HIV-1 Env of isolate 92UG001 (subtype D) (HIV-1)
[16] = biological target: HIV-1 Env of pseudovirus isolate MGRM-G-004 (subtype G) (HIV-1)
[17] = biological target: HIV-1 Env of isolate MGRM-F1-014 (subtype F) (HIV-1)
[18] = biological target: HIV-1 Env of isolate MGRM-F1-004 (subtype F) (HIV-1)
[19] = biological target: HIV-1 Env of isolate MGRM-D-022 (subtype D) (HIV-1)
[20] = biological target: HIV-1 Env of isolate MGRM-D-021 (subtype D) (HIV-1)
[21] = biological target: HIV-1 Env of isolate MGRM-D-014 (subtype D) (HIV-1)
[22] = biological target: HIV-1 Env of isolate MGRM-D-012 (subtype D) (HIV-1)
[23] = biological target: HIV-1 Env of pseudovirus isolate MGRM-G-013 (subtype G) (HIV-1)
[24] = biological target: HIV-1 Env of pseudovirus isolate MGRM-G-027 (subtype G) (HIV-1)
[25] = biological target: HIV-1 Env of isolate MGRM-D-008 (subtype D) (HIV-1)
[26] = biological target: HIV-1 Env of pseudovirus isolate MGRM-G-016 (subtype G) (HIV-1)
[27] = biological target: HIV-1 Env of isolate 92UG024 (subtype D) (HIV-1)
[28] = biological target: HIV-1 Env of isolate MGRM-D-004 (subtype D) (HIV-1)
[29] = biological target: HIV-1 Env of isolate MGRM-F1-010 (subtype F) (HIV-1)
[30] = biological target: HIV-1 Env of isolate MGRM-F1-021 (subtype F) (HIV-1)
[31] = biological target: HIV-1 Env of isolate MGRM-D-018 (subtype D) (HIV-1)
[32] = biological target: HIV-1 Env of isolate MGRM-F1-008 (subtype F) (HIV-1)
[33] = biological target: HIV-1 Env of isolate MGRM-D-016 (subtype D) (HIV-1)
[34] = biological target: HIV-1 Env of pseudovirus isolate MGRM-G-017 (subtype G) (HIV-1)
[35] = biological target: HIV-1 Env of pseudovirus isolate MGRM-G-025 (subtype G) (HIV-1)
[36] = biological target: HIV-1 Env of isolate MGRM-F1-015 (subtype F) (HIV-1)
[37] = biological target: HIV-1 Env of isolate MGRM-D-003 (subtype D) (HIV-1)
[38] = biological target: HIV-1 Env of isolate MGRM-D-029 (subtype D) (HIV-1)
[39] = biological target: HIV-1 Env of pseudovirus isolate MGRM-G-014 (subtype G) (HIV-1)
[40] = biological target: HIV-1 Env of isolate MGRM-D-026 (subtype D) (HIV-1)
[41] = biological target: HIV-1 Env of isolate MGRM-F1-012 (subtype F) (HIV-1)
[42] = biological target: HIV-1 Env of pseudovirus isolate MGRM-G-024 (subtype G) (HIV-1)
[43] = biological target: HIV-1 Env of isolate MGRM-D-002 (subtype D) (HIV-1)
[44] = biological target: HIV-1 Env of isolate MGRM-D-001 (subtype D) (HIV-1)
[45] = biological target: HIV-1 Env of pseudovirus isolate MGRM-G-009 (subtype G) (HIV-1)
[46] = biological target: HIV-1 Env of isolate 92UG046 (subtype D) (HIV-1)
[47] = biological target: HIV-1 Env of isolate MGRM-F1-022 (subtype F) (HIV-1)
[48] = biological target: HIV-1 Env of isolate 92UG114 (subtype D) (HIV-1)
[49] = biological target: HIV-1 Env of pseudovirus isolate MGRM-G-011 (subtype G) (HIV-1)
[50] = biological target: HIV-1 Env of isolate MGRM-D-028 (subtype D) (HIV-1)
[51] = biological target: HIV-1 Env of isolate MGRM-F1-018 (subtype F) (HIV-1)
[52] = biological target: HIV-1 Env of isolate MGRM-F1-013 (subtype F) (HIV-1)
[53] = biological target: HIV-1 Env of isolate 98CN006 (subtype CRF08_BC) (HIV-1)
[54] = biological target: HIV-1 Env of isolate MGRM-F1-017 (subtype F) (HIV-1)
[55] = biological target: HIV-1 Env of isolate MGRM-D-013 (subtype D) (HIV-1)
[56] = biological target: HIV-1 Env of pseudovirus isolate MGRM-G-006 (subtype G) (HIV-1)
[57] = biological target: HIV-1 Env of isolate MGRM-D-005 (subtype D) (HIV-1)
[58] = biological target: HIV-1 Env of isolate MGRM-D-019 (subtype D) (HIV-1)

B1: PGT-123 (antibody, V domains shown)
VH: QLHLQESGPGLVKPPETLSLTCSVSGASINDAYWSWIRQSPGKRPEWVGYVHHSGDTNYNPSLKRRVTFSLDTAKNEVSLKLVDLTAADSATYFCARALHGKRIYGIVALGELFTYFYMDVWGKGTAVTVSS
VL: SSMSVSPGETAKISCGKESIGSRAVQWYQQKPGQPPSLIIYNNQDRPAGVPERFSASPDFRPGTTATLTITNVDAEDEADYYCHIYDARGGTNWVFDRGTTLTVL
- IC50 (neutralization) [1]: 0.023 µg/mL
- IC50 (neutralization) [2]: 0.018 µg/mL
- IC50 (neutralization) [3]: 6.89 µg/mL
- IC50 (neutralization) [4]: 9.79 µg/mL
- IC50 (neutralization) [5]: 4.95 µg/mL
- IC50 (neutralization) [6]: 0.012 µg/mL
- IC50 (neutralization) [7]: 0.053 µg/mL
- IC50 [8]: > 50 µg/mL
- IC50 [9]: 0.008 µg/mL
- IC50 [10]: 0.009 µg/mL
- IC50 [11]: 0.008 µg/mL
- IC50 (neutralization) [12]: 0.051 µg/mL
- IC50 (neutralization) [13]: 0.007 µg/mL
- IC50 [14]: > 50 µg/mL
- IC50 (neutralization) [15]: > 50 µg/mL
- IC50 [16]: 0.181 µg/mL
- IC50 (neutralization) [17]: 0.111 µg/mL
- IC50 (neutralization) [18]: 1.78 µg/mL
- IC50 (neutralization) [19]: > 50 µg/mL
- IC50 (neutralization) [20]: 11.1 µg/mL
- IC50 (neutralization) [21]: 0.009 µg/mL
- IC50 (neutralization) [22]: > 50 µg/mL
- IC50 [23]: 3.97 µg/mL
- IC50 [24]: 0.182 µg/mL
- IC50 (neutralization) [25]: > 50 µg/mL
- IC50 [26]: > 50 µg/mL
- IC50 (neutralization) [27]: > 50 µg/mL
- IC50 (neutralization) [28]: > 50 µg/mL
- IC50 (neutralization) [29]: 0.016 µg/mL
- IC50 (neutralization) [30]: 0.307 µg/mL
- IC50 (neutralization) [31]: 0.007 µg/mL
- IC50 (neutralization) [32]: > 50 µg/mL
- IC50 (neutralization) [33]: > 50 µg/mL
- IC50 [34]: 0.026 µg/mL
- IC50 [35]: 0.046 µg/mL
- IC50 (neutralization) [36]: > 50 µg/mL
- IC50 (neutralization) [37]: 3.74 µg/mL
- IC50 (neutralization) [38]: > 50 µg/mL
- IC50 [39]: 0.005 µg/mL
- IC50 (neutralization) [40]: > 50 µg/mL
- IC50 (neutralization) [41]: 22.2 µg/mL
- IC50 [42]: 0.032 µg/mL
- IC50 (neutralization) [43]: 0.012 µg/mL
- IC50 (neutralization) [44]: 0.147 µg/mL
- IC50 [45]: 33.5 µg/mL
- IC50 (neutralization) [46]: > 50 µg/mL
- IC50 (neutralization) [47]: 0.075 µg/mL
- IC50 (neutralization) [48]: 0.005 µg/mL
- IC50 [49]: 14.9 µg/mL
- IC50 (neutralization) [50]: 0.132 µg/mL
- IC50 (neutralization) [51]: 0.054 µg/mL
- IC50 (neutralization) [52]: 0.08 µg/mL
- IC50 (neutralization) [53]: 0.008 µg/mL
- IC50 (neutralization) [54]: > 50 µg/mL
- IC50 (neutralization) [55]: > 50 µg/mL
- IC50 [56]: > 50 µg/mL
- IC50 (neutralization) [57]: > 50 µg/mL
- IC50 (neutralization) [58]: > 50 µg/mL
